# Measured values published in patent US20120195831A1 (published 2012).
# Where a chain is given by its changes, count along the chain named.
# B1: 588F41 (antibody, V domains shown)
# VH: EVQLQQSGPELVKPGASVKMSCKASGYTFTSYVMHWVKQKPGQGLEWLGYINPYNDGTKYNEKFKGMATLTSDKSSSTAYMELISLTSEDSAVYYCAREASYGNPFAYWGQGTLVTVSA
# VL: DIVMTQSPASLSASVGETVTITCRTSENIYSYLAWFQQKQGNSPQLLVYNTKTLAEGVPSRFSGSGSGTQFSLKINSLQPEDFGNYYCQHHYDTPWTFGGGTKLEIKR
# notes: Purified mouse IgG from a hybridoma; also called 588F41-HC; 588F41-LC
# B2: 588F42 (antibody, V domains shown)
# VH: B1 VH with M67K
# VL: DIVMTQSPASLSASVGETVTITCRTSENIYSYLAWFQQKQGNSPQLLVYNTKTLAEGVPSRFSGSGSGTQFSLKINSLQPEDFGNYYCQHHYDTPWTFGGGTKLEIK
# notes: Purified mouse IgG from a hybridoma; also called 588F42-HC; 588F42-LC
# B3: 588E10 (antibody, V domains shown)
# VH: EVQLQQSGPKLVGPGESVKISCKGSGYTFTDYGMHWVKQSHAKRLEWIGVITIYDGHTNYNQNFKGKAALTVDKSSNTAYLELARMTSEDSAIYYCARGDYDLFWYLDVWGAGTTLTVSS
# VL: DVVMTQTPLSLTVSLGDQASISCRSSQNIKHSDGNTYLEWYLQKPGQSPKLLIYKVSNRFSGVPDRFSGSGSGTDFTLKISRVEAEDLGVYFCFQGSHVPLTFGAGTKLELKR
# notes: Purified mouse IgG from a hybridoma; also called 588E10-HC; 588E10-LC
# B4: 588E14 (antibody, V domains shown)
# VH: B3 VH with K10E, T28A, T115S, L116V
# VL: B3 VL with V2I
# notes: Purified mouse IgG from a hybridoma; also called 588E14-HC; 588E14-LC
# B5: 588E22 (antibody, V domains shown)
# VH: B3 VH with E1D, Q6E, K10E, L81P, L116V
# VL: B3 VL
# notes: Purified mouse IgG from a hybridoma; also called 588E22-HC; 588E22-LC
# B6: PO-1G2-B6 (antibody, V domains shown)
# VH: EVQLQQSGPELVKPGASVKISCKASGYSFTGYHIHWMKQSHVESLEWIGRINPYSGVTDYNQNFKDKANLTVDQSSSTAYMELHSLTSEDSAFYYCARTDYYGPWFAYWGQGTLVTVSA
# VL: DIQMTQSPLSLPVSLGDQASISCRSSPSLVHSNGNTYLHWYLQKPGQSPKLLIYTVSNRFSGVPDRFSGSGSGTDFTLKINRVEAEDLGVYFCSQTTHVPWTFGGGTKLEIKR
# notes: Purified mouse IgG from a hybridoma; also called PO-1G2-B6-HC; PO-1G2-B6-LC
# B7: PO-1C9-C4 (antibody, V domains shown)
# VH: QVQLQQPGSELVRPGASVKLSCKASGYTFTIFWIHWVKQRPGQGLEWIGNIYPGSGGTNYDEKFKSKATLTVDTFSSTAYMQLSSLTSEDSAVYYCTRWGTGKDYWGQGTTLTVSS
# VL: DIVLTQSPAIMSASPGEKVTMTCRARSSVSSSYLHWYQQKPGSSPKLWIYSTSNLALGVPARFSGSGSGTSYSLTISSVEAEDAATYYCQQYDSSPFTFGTGTKLEIKR
# notes: Purified mouse IgG from a hybridoma; also called PO-1C9-C4-HC; PO-1C9-C4-LC
# B8: 588F7 (antibody, V domains shown)
# VH: QVQLQQPGSVLVRPGASVKLSCKASGYTFTNSWILWAKRRPGQGLEWIGEIHPNSGNTNYNEKFKGQATLTVDTSSTTAYVDLSRLTSEDSAVYYCARYEGHWGQGTLVTVSA
# VL: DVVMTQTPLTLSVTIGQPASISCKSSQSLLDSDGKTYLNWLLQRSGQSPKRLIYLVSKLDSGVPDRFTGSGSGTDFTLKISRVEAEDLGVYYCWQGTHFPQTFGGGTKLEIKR
# notes: Purified mouse IgG from a hybridoma; also called 588F7-HC; 588F7-LC
# Biological target: T1, Recombinant Human Her3 (Her3/ErbB3 extracellular domain) (human, UniProt P21860 20-643)
# T1 construct: Analyte of the BIAcore assay; also called Her3 ECD; human Her3/ErbB3 extracellular domain
# T1 sequence (P21860 20-643 limits assumed): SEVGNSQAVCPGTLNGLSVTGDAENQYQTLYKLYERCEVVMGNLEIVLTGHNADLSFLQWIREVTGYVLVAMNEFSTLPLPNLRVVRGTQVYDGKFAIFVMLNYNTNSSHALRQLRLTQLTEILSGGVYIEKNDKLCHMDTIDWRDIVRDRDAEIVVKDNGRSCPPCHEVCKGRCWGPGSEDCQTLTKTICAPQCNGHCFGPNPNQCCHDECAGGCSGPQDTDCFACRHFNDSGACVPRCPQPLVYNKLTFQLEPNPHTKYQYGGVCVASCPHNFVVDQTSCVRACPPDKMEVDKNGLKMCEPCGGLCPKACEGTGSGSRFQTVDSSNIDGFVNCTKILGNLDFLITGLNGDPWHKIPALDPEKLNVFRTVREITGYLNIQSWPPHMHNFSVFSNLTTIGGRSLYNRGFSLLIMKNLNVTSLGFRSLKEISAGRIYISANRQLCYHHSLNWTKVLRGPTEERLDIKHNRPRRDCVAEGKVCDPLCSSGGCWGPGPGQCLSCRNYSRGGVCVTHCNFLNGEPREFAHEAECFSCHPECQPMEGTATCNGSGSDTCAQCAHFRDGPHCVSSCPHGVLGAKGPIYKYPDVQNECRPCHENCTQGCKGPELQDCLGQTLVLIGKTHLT
# Assay: SPR (BIAcore), Mab captured by anti-IgG Fc on CM5 chip, recombinant human Her3 as analyte, 25 °C
# Procedure: All experiments were performed at 25° C. at a flow rate of 40 μl/min. To prepare a BIAcore assay, an anti-human IgG-Fc antibody (50 μg/ml each in acetate buffer, pH 5.0) was immobilized onto a carboxymethyl dextran sensorchip (CM5) using amine coupling procedures as described by the manufacturer. 10000 resonance units (RU) of anti-mouse IgG Fc antibodies were linked respectively onto Flowcells (FC) 1 and 2. Purified Mabs to be tested were diluted at a concentration of 5 μg/ml in 0.5% P20, HBS-EP buffer and injected on FC2 to reach 500 to 1000 RU. FC1 was used as the reference cell. Specific signals correspond to the difference of signals obtained on FC2 versus FC1. The analyte (Recombinant Human Her3, apparent molecular weight 97 kDa) was injected during 90 sec at 5 different concentrations (100, 50, 25, 12.5 and 6.25 nM) in 0.5% P20, HBS-EP buffer. These concentrations were prepared from stock solution in 0.5% P20, HBS-EP. The dissociation phase of the analyte was monitored over a 10 minutes period. Running buffer was also injected under the same conditions as a double reference. After each cycle (antibody+Her3 injection), both Flowcells were regenerated by injecting 20 to 45 μl of Glycine-HCl buffer pH 1.5. This regeneration is sufficient to eliminate all Mabs and Mabs/Her3 complexes captured on the sensorchip. Table 1 listed binding KD for Her3 binding monoclonal antibodies.
row,Kd [nM],Binder
1,3.2,B1
2,3.8,B2
3,3.31,B3
4,3.04,B4
5,2.78,B5
6,5.5,B6
7,2.4,B7

# Biological target: T2, Her3/Avi/His10 receptor (Homo sapiens (Human), UniProt P21860 20-643, limits assumed)
# T2 construct: Soluble tagged receptor of the AlphaScreen assay; The antibodies are called anti-hHer3 there; not shown: Avi tag; His10 tag (ten histidines by its name)
# T2 sequence (P21860 20-643 limits assumed): as above
# Assay: AlphaScreen ligand blocking: antibody titrated against 10 nM biotinylated NRG-1 beta and 10 nM Her3/Avi/His10, % signal
# Procedure: (§1) SDI or Genovac purified anti-hHer3 Mabs were serially diluted two-fold into an assay buffer made from 25 mM Hepes, 100 mM NaCl, 0.5% BSA and 0.05% Tween20 in an opaque/white, half-well area plate (Costar). Mouse IgG1 antibody was used as a negative control (Southern Biotech; cat #010201). Biotinylated NRG-1 beta ligand and Her3/Avi/His₁₀ receptor were added sequentially at 10 nM concentration to the assay plate containing serially diluted antibodies. This mixture of receptor, ligand and the antibodies was incubated at room temperature with gentle shaking for 90 minutes. AlphaScreen Streptavidin Donor beads and His-Nickel chelate Acceptor beads were added into the assay at a final concentration of 20 μg/ml each. The light sensitive beads were handled under chromagreen filtered light. The assay plates were covered with foil and incubated at room temperature with gentle shaking for 1 hour. The plates were read in PE EnVision plate reader equipped with an Alpha module (dedicated laser for excitation and designed to measure the signal above the well). Table 7 listed IC₅₀ values in ligand blocking that were estimated using four parameter curve fitting with concentration titration graphs (FIGS. 7 A&B).
row,IC50 [nM],Binder
1,1.17,B1
2,3.03,B2
3,2.92,B3
4,1.44,B4
5,2.08,B5
6,42.6,B6
7,2.9,B7

# Biological target: T3, Her4 on CHO cells (CHO-Her4) (UniProt Q15303 26-1308, limits assumed)
# T3 construct: whole, on cells
# T3 sequence (Q15303 26-1308 limits assumed): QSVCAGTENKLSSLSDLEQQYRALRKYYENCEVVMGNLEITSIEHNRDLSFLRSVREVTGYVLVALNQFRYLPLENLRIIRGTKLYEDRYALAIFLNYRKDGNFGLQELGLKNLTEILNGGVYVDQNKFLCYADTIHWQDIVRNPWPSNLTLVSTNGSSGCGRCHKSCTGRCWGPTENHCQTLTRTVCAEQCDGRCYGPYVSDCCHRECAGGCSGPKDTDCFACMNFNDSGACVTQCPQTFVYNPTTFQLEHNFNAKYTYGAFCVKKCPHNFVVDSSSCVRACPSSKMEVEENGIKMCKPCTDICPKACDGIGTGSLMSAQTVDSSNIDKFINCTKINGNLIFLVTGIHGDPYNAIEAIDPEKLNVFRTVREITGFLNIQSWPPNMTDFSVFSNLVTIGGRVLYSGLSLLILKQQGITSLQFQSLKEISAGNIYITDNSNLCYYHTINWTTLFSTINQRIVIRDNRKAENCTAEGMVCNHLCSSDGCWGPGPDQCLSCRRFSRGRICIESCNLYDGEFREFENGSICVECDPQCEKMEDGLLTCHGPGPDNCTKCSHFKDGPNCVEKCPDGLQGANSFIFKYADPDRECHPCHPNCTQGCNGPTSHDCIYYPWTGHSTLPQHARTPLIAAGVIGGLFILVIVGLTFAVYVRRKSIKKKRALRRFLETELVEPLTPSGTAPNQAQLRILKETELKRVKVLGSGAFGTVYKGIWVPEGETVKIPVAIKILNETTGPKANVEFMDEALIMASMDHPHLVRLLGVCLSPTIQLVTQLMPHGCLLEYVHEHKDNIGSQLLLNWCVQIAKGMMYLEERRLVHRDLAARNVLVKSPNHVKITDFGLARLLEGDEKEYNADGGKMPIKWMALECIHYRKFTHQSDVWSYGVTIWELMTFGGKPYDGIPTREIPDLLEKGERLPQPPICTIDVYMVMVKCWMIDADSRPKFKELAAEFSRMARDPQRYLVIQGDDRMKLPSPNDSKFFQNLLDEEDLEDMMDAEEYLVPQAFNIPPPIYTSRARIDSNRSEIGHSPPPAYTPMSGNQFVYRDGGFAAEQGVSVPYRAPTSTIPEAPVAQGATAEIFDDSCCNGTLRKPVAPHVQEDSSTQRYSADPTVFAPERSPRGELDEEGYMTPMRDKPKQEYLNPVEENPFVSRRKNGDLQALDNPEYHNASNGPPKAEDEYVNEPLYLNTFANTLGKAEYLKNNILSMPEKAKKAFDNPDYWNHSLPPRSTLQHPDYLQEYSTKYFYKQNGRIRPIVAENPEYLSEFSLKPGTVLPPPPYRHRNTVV
# Assay: FACS on CHO-Her4 cells, purified IgG, R-PE anti-mouse IgG
# Procedure: (§2) CHO-Her2, CHO-Her4, CHO-EGFR cells were harvested and resuspended in PBS, 2% FBS at a concentration of approximately 1×10⁶/ml. Cells were stained with purified IgGs at 4° C. for 40 min. Cells were washed with 4 mL PBS, 2% FBS, then centrifuged at 1200 rpm for 10 minutes. Supernatant was removed. Cells were stained with R-PE conjugated anti-mouse IgG at 4° C. for 30 min. Cells were washed with 4 mL PBS, 2% FBS, then centrifuged at 1200 rpm for 10 minutes. Supernatant was removed and cell pellets were fixed in 1% formaldehyde. Cells were analyzed on a FACS Calibur (BD Biosciences) by collecting 20,000 events from gate 1.
row,binding result,Binder
1,no binding,B1
2,no binding,B2
3,no binding,B3
4,no binding,B4
5,no binding,B5
6,no binding,B6
7,no binding,B8
8,no binding,B7

# Biological target: T4, human Her3 receptor on cells (T47D, MCF7) (human, UniProt P21860 20-1342)
# T4 sequence (P21860 20-1342 limits assumed, stated change not applied): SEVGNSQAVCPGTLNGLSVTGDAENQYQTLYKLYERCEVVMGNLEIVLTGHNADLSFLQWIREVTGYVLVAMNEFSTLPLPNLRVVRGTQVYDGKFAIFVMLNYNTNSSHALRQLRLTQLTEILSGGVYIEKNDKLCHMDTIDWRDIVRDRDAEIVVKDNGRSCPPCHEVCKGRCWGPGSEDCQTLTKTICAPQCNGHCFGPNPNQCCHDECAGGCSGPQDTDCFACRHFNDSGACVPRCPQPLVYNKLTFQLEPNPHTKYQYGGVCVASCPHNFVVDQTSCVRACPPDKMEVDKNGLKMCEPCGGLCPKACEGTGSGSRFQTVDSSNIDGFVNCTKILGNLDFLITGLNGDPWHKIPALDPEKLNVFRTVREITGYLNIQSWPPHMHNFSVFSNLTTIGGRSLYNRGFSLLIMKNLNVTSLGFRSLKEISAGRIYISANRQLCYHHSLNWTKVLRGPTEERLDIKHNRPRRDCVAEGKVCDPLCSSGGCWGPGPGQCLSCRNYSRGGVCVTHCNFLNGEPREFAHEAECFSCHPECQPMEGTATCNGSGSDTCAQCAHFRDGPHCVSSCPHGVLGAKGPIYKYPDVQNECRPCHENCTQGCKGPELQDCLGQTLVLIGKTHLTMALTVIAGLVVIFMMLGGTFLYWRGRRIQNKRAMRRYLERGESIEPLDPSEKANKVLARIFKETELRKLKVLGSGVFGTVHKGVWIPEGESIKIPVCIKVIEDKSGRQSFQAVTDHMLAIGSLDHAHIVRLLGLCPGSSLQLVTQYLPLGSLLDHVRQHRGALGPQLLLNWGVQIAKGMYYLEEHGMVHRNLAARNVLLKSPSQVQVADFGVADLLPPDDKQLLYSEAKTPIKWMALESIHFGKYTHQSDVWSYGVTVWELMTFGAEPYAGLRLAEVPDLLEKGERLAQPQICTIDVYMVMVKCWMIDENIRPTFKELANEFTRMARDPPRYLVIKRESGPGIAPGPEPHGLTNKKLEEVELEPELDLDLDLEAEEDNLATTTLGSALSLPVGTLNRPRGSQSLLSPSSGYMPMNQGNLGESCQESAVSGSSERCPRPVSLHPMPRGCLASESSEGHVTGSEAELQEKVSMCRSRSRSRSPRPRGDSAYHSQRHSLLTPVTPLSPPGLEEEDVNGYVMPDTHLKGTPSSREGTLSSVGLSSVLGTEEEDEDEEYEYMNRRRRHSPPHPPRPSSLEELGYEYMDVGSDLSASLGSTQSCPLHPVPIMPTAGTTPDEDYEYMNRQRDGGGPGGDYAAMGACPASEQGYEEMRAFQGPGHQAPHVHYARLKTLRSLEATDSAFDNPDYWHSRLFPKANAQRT
# Assay: cell-based or functional assay
row,"% Receptor Internalization (T47D cells, FACS) [%]",Binder
1,59,B1
2,57,B2
3,51,B3
4,52,B4
5,53,B5
6,13,B6
7,41,B7

# Biological target: T4, human Her3 receptor on cells (T47D, …)
# Assay: cell-based or functional assay
# Remark: another data set of the same source
row,"IC50 of inhibition of pHer3 (MCF7 cells stimulated with rhNRG1-β1, ELISA)",Binder
1,0.66 nM,B1
2,1.04 nM,B2
3,90 pM,B3
4,70 pM,B4
5,90 pM,B5
6,2.91 nM,B6
7,6.99 nM,B7

# Biological target: T4, human Her3 receptor on cells (T47D, …)
# Assay: cell-based or functional assay
# Remark: another data set of the same source
row,"IC50 of pERK inhibition (MCF7 cells stimulated with rhNRG1-β1, MSD) [nM]",Binder
1,4.91,B1
2,1.8,B2
3,1.72,B3
4,1.82,B4
5,1.44,B5
6,290,B6
7,4.62,B7

# Biological target: T2, Her3/Avi/His10 receptor
# Assay: AlphaScreen competition; antibody titrated against 10 nM biotinylated NRG-1 beta and 10 nM Her3/Avi/His10; n = 3
# Procedure: as §1
row,IC50 [nM],Binder
1,4.1,B1
2,4.6,B2
3,4.9,B3
4,2.3,B4
5,3.6,B5
6,72.8,B6
7,2.7,B7

# Biological target: T5, Her2 on CHO cells (CHO-Her2) (UniProt P04626 23-1255, limits assumed)
# T5 construct: whole, on cells
# Assay: FACS on CHO-Her2 cells, purified IgG, R-PE anti-mouse IgG
# Procedure: as §2
row,binding result,Binder
1,no binding,B1
2,no binding,B2
3,no binding,B3
4,no binding,B4
5,no binding,B5
6,no binding,B6
7,no binding,B8
8,no binding,B7

# Biological target: T6, mouse HER3/ErbB3 (mouse, UniProt Q61526)
# T6 construct: receptor expressed on CHO cells; also called mouse Her3 receptor on CHO cells
# T6 sequence (Q61526 20-1339 limits assumed): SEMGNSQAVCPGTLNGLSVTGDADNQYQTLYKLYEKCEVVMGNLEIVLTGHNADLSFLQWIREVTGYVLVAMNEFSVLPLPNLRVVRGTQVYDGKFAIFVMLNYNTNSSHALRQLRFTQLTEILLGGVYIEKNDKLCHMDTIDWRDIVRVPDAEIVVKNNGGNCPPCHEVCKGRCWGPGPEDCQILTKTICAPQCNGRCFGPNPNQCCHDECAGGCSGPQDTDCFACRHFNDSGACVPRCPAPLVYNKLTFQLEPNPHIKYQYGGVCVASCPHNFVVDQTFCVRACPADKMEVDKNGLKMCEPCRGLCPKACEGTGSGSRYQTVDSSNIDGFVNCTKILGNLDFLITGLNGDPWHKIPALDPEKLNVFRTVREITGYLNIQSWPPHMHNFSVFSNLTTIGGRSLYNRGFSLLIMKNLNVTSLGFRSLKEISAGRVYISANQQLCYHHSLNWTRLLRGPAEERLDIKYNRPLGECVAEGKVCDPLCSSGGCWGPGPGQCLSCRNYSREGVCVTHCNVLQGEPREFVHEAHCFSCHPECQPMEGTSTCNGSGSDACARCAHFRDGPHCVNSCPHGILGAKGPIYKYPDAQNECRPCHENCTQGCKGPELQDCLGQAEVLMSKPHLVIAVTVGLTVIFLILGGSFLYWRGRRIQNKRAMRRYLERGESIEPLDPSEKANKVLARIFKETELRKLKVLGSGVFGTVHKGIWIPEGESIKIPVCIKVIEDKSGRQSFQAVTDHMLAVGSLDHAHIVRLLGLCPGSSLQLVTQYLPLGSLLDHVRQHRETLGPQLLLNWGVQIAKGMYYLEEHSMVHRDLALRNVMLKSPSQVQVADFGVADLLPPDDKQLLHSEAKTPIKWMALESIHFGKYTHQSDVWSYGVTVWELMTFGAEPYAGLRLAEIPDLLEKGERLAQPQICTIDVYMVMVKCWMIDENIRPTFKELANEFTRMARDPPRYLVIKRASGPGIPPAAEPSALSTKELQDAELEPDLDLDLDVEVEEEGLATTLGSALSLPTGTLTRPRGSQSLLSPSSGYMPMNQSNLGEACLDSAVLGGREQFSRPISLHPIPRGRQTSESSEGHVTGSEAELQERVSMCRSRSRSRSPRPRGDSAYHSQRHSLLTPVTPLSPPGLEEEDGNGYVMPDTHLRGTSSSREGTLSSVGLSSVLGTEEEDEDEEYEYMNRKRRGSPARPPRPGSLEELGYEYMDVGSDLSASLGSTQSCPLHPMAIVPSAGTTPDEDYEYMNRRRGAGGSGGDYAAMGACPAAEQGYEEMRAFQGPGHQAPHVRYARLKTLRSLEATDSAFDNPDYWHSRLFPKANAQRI
# Assay: FACS, purified IgG on CHO cells expressing mouse Her3, R-PE anti-mouse IgG
# Procedure: as §2, with “CHO cell lines expressing human or mouse Her3 receptors were used to study species-cross reactivity. Cells” for “CHO-Her2, CHO-Her4, CHO-EGFR cells”
row,binding result,Binder
1,binds,B6

# Biological target: T7, EGFR on CHO cells (CHO-EGFR) (UniProt P00533 25-1210, limits assumed)
# T7 construct: whole, on cells
# Assay: FACS on CHO-EGFR cells, purified IgG, R-PE anti-mouse IgG
# Procedure: as §2
row,binding result,Binder
1,no binding,B1
2,no binding,B2
3,no binding,B3
4,no binding,B4
5,no binding,B5
6,no binding,B6
7,no binding,B8
8,no binding,B7

# Biological target: T4, human Her3 receptor on cells (T47D, …)
# Assay: cell-based or functional assay
# Remark: another data set of the same source
row,"IC50 of pAKT inhibition (MCF7 cells stimulated with rhNRG1-β1, ELISA)",Binder
1,2.05 nM,B1
2,1.36 nM,B2
3,0.14 nM,B3
4,90 pM,B5
5,9.47 nM,B7
